In publication PMC5159557 (Nucleic Acids Research, 2016):

T1: Cas5 subunit of Escherichia coli type I-E Cascade (Escherichia coli, UniProt Q46898 1-224)
T1 sequence: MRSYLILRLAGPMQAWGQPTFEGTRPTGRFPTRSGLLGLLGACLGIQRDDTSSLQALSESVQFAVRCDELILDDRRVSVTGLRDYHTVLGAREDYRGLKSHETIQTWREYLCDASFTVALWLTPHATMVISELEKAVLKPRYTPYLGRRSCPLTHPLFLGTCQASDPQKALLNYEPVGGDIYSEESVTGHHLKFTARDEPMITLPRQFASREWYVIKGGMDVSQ

T2: Cas6e subunit of Escherichia coli type I-E Cascade (Escherichia coli, UniProt Q46897 1-199)
T2 sequence: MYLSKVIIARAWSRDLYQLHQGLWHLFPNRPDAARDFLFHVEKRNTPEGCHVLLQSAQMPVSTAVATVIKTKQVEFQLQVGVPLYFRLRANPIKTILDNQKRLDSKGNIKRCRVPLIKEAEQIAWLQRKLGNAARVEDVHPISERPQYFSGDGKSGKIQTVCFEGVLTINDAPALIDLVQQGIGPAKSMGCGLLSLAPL


Tests used:
Assay in all cases: native MS
[1] = target: Cas7 subunit of Escherichia coli type I-E Cascade (Escherichia coli)
[2] = target: T1, Cas5 subunit of Escherichia coli type …
[3] = target: T2, Cas6e subunit of Escherichia coli type …

Cas7 subunit of Escherichia coli type I-E Cascade (natural protein), sequence (Q46899 2-363 limits assumed): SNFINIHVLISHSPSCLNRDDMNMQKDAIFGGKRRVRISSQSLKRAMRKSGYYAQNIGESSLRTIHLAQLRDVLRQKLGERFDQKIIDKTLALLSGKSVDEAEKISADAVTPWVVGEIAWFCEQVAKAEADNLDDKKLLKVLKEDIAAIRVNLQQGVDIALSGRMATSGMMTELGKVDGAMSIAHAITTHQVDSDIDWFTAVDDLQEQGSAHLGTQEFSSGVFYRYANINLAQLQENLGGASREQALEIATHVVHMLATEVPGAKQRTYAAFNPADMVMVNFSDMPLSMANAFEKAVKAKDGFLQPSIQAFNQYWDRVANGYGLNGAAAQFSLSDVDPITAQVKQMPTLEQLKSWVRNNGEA

stoichiometry N [1] | binding result [2] | binding result [3] | Molecule
6 | – | – | Cas7 subunit of Escherichia coli type I-E Cascade (natural protein)
– | binds | binds | Cse2 subunit of Escherichia coli type I-E Cascade, N-terminally fused to Strep-Tag II (natural protein) MADEIDAMALYRAWQQLDNGSCAQIRRVSEPDELRDIPAFYRLVQPFGWENPRHQQALLRMVFCLSAGKNVIRHQDKKSEQTTGISLGRALANSGRINERRIFQLIRADRTADMVQLRRLLTHAEPVLDWPLMARMLTWWGKRERQQLLEDFVLTTNKNA
